Laboratory results reported in PMC5113206 (RNA, 2016).

What was measured:
Experiment in all cases: pull-down
GST-DHX29 (248–594) = target: T1, GST-DHX29 (248–594) (UniProt Q7Z478 248-594)
T1 sequence (looked up): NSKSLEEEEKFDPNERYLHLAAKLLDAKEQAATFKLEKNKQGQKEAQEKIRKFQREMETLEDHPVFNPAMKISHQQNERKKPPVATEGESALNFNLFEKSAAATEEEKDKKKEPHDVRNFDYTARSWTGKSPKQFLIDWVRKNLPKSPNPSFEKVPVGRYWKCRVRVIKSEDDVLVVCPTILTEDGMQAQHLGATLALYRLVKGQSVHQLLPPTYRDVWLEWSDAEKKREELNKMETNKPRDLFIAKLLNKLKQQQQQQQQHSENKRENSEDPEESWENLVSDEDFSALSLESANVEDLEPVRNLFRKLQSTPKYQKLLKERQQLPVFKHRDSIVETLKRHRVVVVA

GST-eIF3a (783–1382) = GST-eIF3a (783–1382) (human, UniProt Q14152 783-1382)
Chain of GST-eIF3a (783–1382) (Q14152 783-1382): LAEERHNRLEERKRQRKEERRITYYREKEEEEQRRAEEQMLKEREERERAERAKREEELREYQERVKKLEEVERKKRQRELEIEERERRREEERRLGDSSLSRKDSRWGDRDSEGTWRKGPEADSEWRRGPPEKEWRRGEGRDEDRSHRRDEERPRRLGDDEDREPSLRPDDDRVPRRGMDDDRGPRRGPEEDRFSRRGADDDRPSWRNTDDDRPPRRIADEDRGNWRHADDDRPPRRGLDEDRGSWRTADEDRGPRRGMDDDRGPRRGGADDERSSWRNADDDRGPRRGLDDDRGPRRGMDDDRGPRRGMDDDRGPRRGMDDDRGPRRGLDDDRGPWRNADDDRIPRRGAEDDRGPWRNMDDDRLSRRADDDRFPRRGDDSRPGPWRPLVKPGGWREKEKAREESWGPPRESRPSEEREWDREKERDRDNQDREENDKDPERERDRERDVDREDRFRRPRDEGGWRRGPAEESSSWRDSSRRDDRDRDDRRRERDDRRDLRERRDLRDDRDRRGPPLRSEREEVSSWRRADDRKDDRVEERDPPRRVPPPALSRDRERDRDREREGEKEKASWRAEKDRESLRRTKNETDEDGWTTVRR

DHX29 (FL), His-tagged = target: T2, DHX29 (FL), His-tagged (UniProt Q7Z478 1-1369)
T2 sequence (looked up): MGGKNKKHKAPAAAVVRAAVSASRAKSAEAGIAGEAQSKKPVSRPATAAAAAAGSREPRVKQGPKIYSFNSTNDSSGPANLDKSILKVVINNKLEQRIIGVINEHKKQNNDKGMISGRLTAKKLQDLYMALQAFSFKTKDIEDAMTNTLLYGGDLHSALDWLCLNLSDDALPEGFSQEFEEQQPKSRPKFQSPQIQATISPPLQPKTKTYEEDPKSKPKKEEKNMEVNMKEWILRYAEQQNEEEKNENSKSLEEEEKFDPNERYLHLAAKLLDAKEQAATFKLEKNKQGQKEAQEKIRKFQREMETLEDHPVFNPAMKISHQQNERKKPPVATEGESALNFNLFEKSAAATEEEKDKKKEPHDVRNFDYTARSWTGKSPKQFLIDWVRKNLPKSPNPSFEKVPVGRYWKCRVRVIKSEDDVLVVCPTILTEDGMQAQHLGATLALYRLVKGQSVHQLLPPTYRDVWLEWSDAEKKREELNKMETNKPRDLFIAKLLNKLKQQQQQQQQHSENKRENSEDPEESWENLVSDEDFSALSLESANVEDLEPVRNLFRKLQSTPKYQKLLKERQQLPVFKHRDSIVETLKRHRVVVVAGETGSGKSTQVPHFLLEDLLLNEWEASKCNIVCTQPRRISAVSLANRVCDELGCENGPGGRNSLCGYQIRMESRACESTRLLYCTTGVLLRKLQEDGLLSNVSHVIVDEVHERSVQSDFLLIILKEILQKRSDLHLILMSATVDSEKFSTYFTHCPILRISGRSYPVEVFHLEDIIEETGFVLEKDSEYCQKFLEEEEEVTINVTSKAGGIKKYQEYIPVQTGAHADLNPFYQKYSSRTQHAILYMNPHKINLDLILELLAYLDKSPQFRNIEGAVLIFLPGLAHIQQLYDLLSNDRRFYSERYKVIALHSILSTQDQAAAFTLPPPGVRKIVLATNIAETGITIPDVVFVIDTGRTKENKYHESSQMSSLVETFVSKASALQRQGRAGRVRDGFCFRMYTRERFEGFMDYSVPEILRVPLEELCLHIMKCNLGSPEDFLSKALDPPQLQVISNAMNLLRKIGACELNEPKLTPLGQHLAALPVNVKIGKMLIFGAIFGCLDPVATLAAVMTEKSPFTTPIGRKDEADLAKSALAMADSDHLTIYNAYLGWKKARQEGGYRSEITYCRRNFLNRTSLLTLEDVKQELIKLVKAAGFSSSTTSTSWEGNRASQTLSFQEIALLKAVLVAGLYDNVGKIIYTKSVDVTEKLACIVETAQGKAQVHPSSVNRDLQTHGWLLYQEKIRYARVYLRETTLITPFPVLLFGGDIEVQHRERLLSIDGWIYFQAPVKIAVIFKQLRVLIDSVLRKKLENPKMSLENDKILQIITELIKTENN

B1: eIF3b (1–300), His-tagged (domain or fragment, murine, UniProt Q8JZQ9 1-300, looked up)
chain: MQDAENVAVPEAAEERAEPARQQPASESPPTDEAAGSGGSEVGQTEDAEEDAEAGPEPEVRAKPAAQSEEETATSPAASPTPQSAERSPSQEPSAPGKAEAVGEQARGHPSAGAEEEGGSDGSAAEAEPRALENGEADEPSFSDPEDFVDDVSEEELLGDVLKDRPQEADGIDSVIVVDNVPQVGPDRLEKLKNVIHKIFSKFGKIINDYYPEEDGKTKGYIFLEYASPAHAVDAVKNADGYKLDKQHTFRVNLFTDFDKYMTISDEWDIPEKQPFKDLGNLRYWLEEAECRDQYSVIFE
B1: binds (GST-DHX29 (248–594)).

B2: DHX29 (1–247), His-tagged (domain or fragment, UniProt Q7Z478 1-247, looked up)
chain: MGGKNKKHKAPAAAVVRAAVSASRAKSAEAGIAGEAQSKKPVSRPATAAAAAAGSREPRVKQGPKIYSFNSTNDSSGPANLDKSILKVVINNKLEQRIIGVINEHKKQNNDKGMISGRLTAKKLQDLYMALQAFSFKTKDIEDAMTNTLLYGGDLHSALDWLCLNLSDDALPEGFSQEFEEQQPKSRPKFQSPQIQATISPPLQPKTKTYEEDPKSKPKKEEKNMEVNMKEWILRYAEQQNEEEKNE
B2: binds (GST-eIF3a (783–1382)).

B3: GST-eIF3b (161–264) (domain or fragment, murine, UniProt Q8JZQ9 161-264, looked up)
chain: VLKDRPQEADGIDSVIVVDNVPQVGPDRLEKLKNVIHKIFSKFGKIINDYYPEEDGKTKGYIFLEYASPAHAVDAVKNADGYKLDKQHTFRVNLFTDFDKYMTI
B3: binds (DHX29 (FL), His-tagged).
